Source: the RNAGym collection of RNA variant scans (doi:10.7554/elife.80360)

B1: CPEB3 Ribozyme (parent)
chain: GGGGGCCACAGCAGAAGCGUUCACGUCGCGGCCCCUGUCAGAUUCUGGUGAAUCUGCGAAUUCUGCUGU

Variants of: B1
Experiment: self-cleavage, relative activity (ratio to wild type); higher = more cleavage; co-transcriptional

Variant	self-cleavage
GGGGGCCACAGCAGAAGGGUUCACGUAGCGGCCCCUGUCAGAUUCUGGUGAAUCUGCGAAUUCUGCUGU [C18G C27A]	0.16
GGGGGCCACAGCAGAAGGGUUCACGUCGCGGCCCCUGUCAGAUUCUGGUGAUUCUGCGAAUUCUGCUGU [C18G A52U]	0.0952
GGGGGCCACAGCAGAAGAGUACACGUCGCGGCCCCUGUCAGAUUCUGGUGAAUCUGCGAAUUCUGCUGU [C18A U21A]	0.107
GGGGGCCACAGCAGAAGAGUGCACGUCGCGGCCCCUGUCAGAUUCUGGUGAAUCUGCGAAUUCUGCUGU [C18A U21G]	0.109
GGGGGCCACAGCAGAAGAGUCCACGUCGCGGCCCCUGUCAGAUUCUGGUGAAUCUGCGAAUUCUGCUGU [C18A U21C]	0.181
GGGGGCCACAGCAGAAGGGUUCACGUCGCGGCCCCUGUCAGGUUCUGGUGAAUCUGCGAAUUCUGCUGU [C18G A42G]	0.229
GGGGGCCACAGCAGAAGGGUUCACGUCGCGGCCCCUGUCAGUUUCUGGUGAAUCUGCGAAUUCUGCUGU [C18G A42U]	0.137
GGGGGCCACAGCAGAAGAGUUCACGUCGCGGCCCCUGUCAGAUUCUGGUGAAUCUGCGAAUUCGGCUGU [C18A U64G]	0.178
GGGGGCCACAGCAGAAGGGUUCACGUCGCGGACCCUGUCAGAUUCUGGUGAAUCUGCGAAUUCUGCUGU [C18G C32A]	0.105
GGGGGCCACAGCAGAAGGGUUCACGUCGCGGUCCCUGUCAGAUUCUGGUGAAUCUGCGAAUUCUGCUGU [C18G C32U]	0.195
GGGGGCCACAGCAGAAGGGUUCACGUCGCGGGCCCUGUCAGAUUCUGGUGAAUCUGCGAAUUCUGCUGU [C18G C32G]	0.195
GGGGGCCACAGCAGAAGGGUUCACGUCGCGGCCCCUGUCAGAUUCUGGUGCAUCUGCGAAUUCUGCUGU [C18G A51C]	0.159
GGGGGCCACAGCAGAAGAGUUCACGUCGCGGCCCCUGUCACAUUCUGGUGAAUCUGCGAAUUCUGCUGU [C18A G41C]	0.119
GGGGGCCACAGCAGAAGAGUUCACGUCGCGGCCCCUGUCAUAUUCUGGUGAAUCUGCGAAUUCUGCUGU [C18A G41U]	0.211
GGGGGCCACAGCAGAAGGGUUCACGUCGCGGCCUCUGUCAGAUUCUGGUGAAUCUGCGAAUUCUGCUGU [C18G C34U]	0.133
GGGGGCCACAGCAGAAGGGUUCACGUCGCGGCCGCUGUCAGAUUCUGGUGAAUCUGCGAAUUCUGCUGU [C18G C34G]	0.153
GGGGGCCACAGCAGAAGGGUUCACGUCGCGGCCACUGUCAGAUUCUGGUGAAUCUGCGAAUUCUGCUGU [C18G C34A]	0.131
GGGGGCCACAGCAGAAGAGUUCACGUCGCGGCCCCUGUCAGAAUCUGGUGAAUCUGCGAAUUCUGCUGU [C18A U43A]	0.117
GGGGGCCACAGCAGAAGAGUUCACGUCGCGGCCCCUGUCAGAGUCUGGUGAAUCUGCGAAUUCUGCUGU [C18A U43G]	0.117
GGGGGCCACAGCAGAAGAGUUCACGUCGCGGCCCCUGUCAGAUUCUGGUGAAUCGGCGAAUUCUGCUGU [C18A U55G]	0.113

Variant	self-cleavage
GGGGGCCACAGCAGAAGAGUUCACGUCGCGGCCCCUGUCAGAUUCUGGUGAAUCAGCGAAUUCUGCUGU [C18A U55A]	0.142
GGGGGCCACAGCAGAAGGGUUCACGUCGCGGCCCCUGUCAGAUUCUGGUGAAUCUGCGUAUUCUGCUGU [C18G A59U]	0.17
GGGGGCCACAGCAGAAGGGUUCACGUCGCGGCCCCUGUCAGAUUCUGGUGAAUCUGCGGAUUCUGCUGU [C18G A59G]	0.22
GGGGGCCACAGCAGAAGAGUUCACGUCGCGGCCCCUGUCAGAUUCGGGUGAAUCUGCGAAUUCUGCUGU [C18A U46G]	0.219
GGGGGCCACAGCAGAAGAGUUCACGUCGCGGCCCCUGUCAGAUUCAGGUGAAUCUGCGAAUUCUGCUGU [C18A U46A]	0.217
GGGGGCCACAGCAGAAGGGUUCAAGUCGCGGCCCCUGUCAGAUUCUGGUGAAUCUGCGAAUUCUGCUGU [C18G C24A]	0.105
GGGGGCCACAGCAGAAGGGUUCACGUCGCGGCCCCUGUCAGAUUCUGGUGAAUCUGCGAAUUCUGCUGU [C18G]	0.188
GGGGGCCACAGCAGAAGAGUUCACGUCGCGGCCCCUGUCAGAUUCUGGUGAAUCUGCGAAUUCUGCUGG [C18A U69G]	0.307
GGGGGCCACAGCAGAAGAGUUCACGUCGCGGCCCCUGUCAGAUUCUGGUGAAUCUGCGAAUUCUGCUGA [C18A U69A]	0.302
GGGGGCCACAGCAGAAGAGCUCACGUCGCGGCCCCUGUCAGAUUCUGGUGAAUCUGCGAAUUCUGCUGU [C18A U20C]	0.158
GGGGGCCACAGCAGAAGAGUUCACGUCGCGGCCCCUGUCAGAUUCUGGUGAAUCUGCGAAGUCUGCUGU [C18A U61G]	0.166
GGGGGCCACAGCAGAAGAGUUCACGUCGCGGCCCCUGUCAGAUUCUGGUGAAUCUGCGAAAUCUGCUGU [C18A U61A]	0.138
GGGGGCCACAGCAGAAGGGUUCACGUCGUGGCCCCUGUCAGAUUCUGGUGAAUCUGCGAAUUCUGCUGU [C18G C29U]	0.156
GGGGGCCACAGCAGAAGGGUUCACGUCGAGGCCCCUGUCAGAUUCUGGUGAAUCUGCGAAUUCUGCUGU [C18G C29A]	0.16
GGGGGCCACAGCAGAAGAGUUCACGUCGCGGCCCCUGUCAGAUUCUGGUGAAUCUGCUAAUUCUGCUGU [C18A G58U]	0.184
GGGGGCCACAGCAGAAGAGUUCACGUCGCGGCCCCUGUCAGAUUCUGGUGAAUCUGCAAAUUCUGCUGU [C18A G58A]	0.155
GGGGGCCACAGCAGAAGAGUUCACGUCGCGGCCCCUGUCAGAUUCUCGUGAAUCUGCGAAUUCUGCUGU [C18A G47C]	0.181
GGGGGCCACAGCAGAAGAGUUCACGUCGCGGCCCCUGUCAGAUUCUUGUGAAUCUGCGAAUUCUGCUGU [C18A G47U]	0.203
GGGGGCCACAGCAGAAGAGUUCACGUCGCGGCCCCUGUCAGAUUCUAGUGAAUCUGCGAAUUCUGCUGU [C18A G47A]	0.232
